One data set concerns CD15. Nature of the data set: CD15 expression by flow cytometry after G-CSF treatment with or without DANA. In kind it is cell-based, human. To be noted: for expression of CD15: 10 ng/ml G-CSF, 72 hr. The procedure:
Bone marrow cells were treated with 10 ng/mL of G-CSF for 5 days in the presence or absence of 100 mM DANA and expression of CD15 was analyzed by flow cytometry.
(§1) Aliquots of ˜2-5×10^5 cells were washed with PBS, 2% FBS and incubated with primary mAbs. Subsequently, the cells were washed and incubated with species and isotype matched FITC- or PE-labeled polyclonal antibodies. Following this incubation, the cells were washed and FITC or PE fluorescence of cells was determined using a Cytomics FC 500 MPL flow cytometer (Beckman Coulter Inc., Fullerton, Calif.).
(§2) Freshly isolated BM cells were separated into early immature (Band 1), late immature (Band 2) and mature (Band 3) myeloid fractions.
A general note: Flow cytometry measures light scatter and fluorescence of single cells or particles in a stream.

In data set [1] the test system is Hcell and HECA-452-reactive ˜65 kDa glycoprotein on human BM cells. Nature of the data set: In vitro G-CSF treatment of human BM cells, HECA-452 and E-Ig Western blots. In kind it is cell-based. The protocol: Normal human bone marrow (BM) cells were isolated from human BM harvest material (Massachusetts General Hospital, Boston, Mass.). Red cells were separated using dextran sedimentation method. The leukocyte-rich supernatant was subjected to a two-step discontinuous Percoll (Amersham Pharmacia Biotech; Piscataway, N.J.) density gradient centrifugation (1.065 g/ml and 1.080 g/ml; 1000 g for 20 min at 4° C.). […] The cells with least density found at the upper band (“Band 1”) contained early immature cells (myeloblasts and promyelocytes), “Band 2” contained late immature cells (primarily myelocytes and metamyelocytes), and “Band 3” contained the most mature leukocytes (predominantly band and segmented neutrophils) as well as some contaminating red cells, which were subsequently removed by hypotonic lysis. The cells in different bands were collected, washed and used for further studies. In some instances, BM mononuclear cells (BM-MNC) were isolated by Ficoll-Hypaque density gradient centrifugation. CD34+/lineage—subpopulation was isolated from BM-MNC using a negative cell selection StemSep™ human progenitor enrichment cocktail (Stem Cell Technologies Inc.); CD34+ cells were then further isolated by positive selection using anti-CD34 immunomagnetic beads (Miltenyi Biotech.), routinely resulting in populations of >98% CD34+ cells.
Membrane proteins of purified ML-M, ML-G, PMN, or PBMC were isolated as described previously^28,39. Membrane protein suspensions were aliquoted and stored at −20° C. For SDS-PAGE and Western blotting, membrane preparations were diluted in reducing sample buffer, boiled and then separated on 4-20% or 7.5% Criterion Tris-HCl SDS-PAGE gels (Bio-Rad Laboratories). Resolved membrane proteins were transferred to Sequi-blot polyvinylidene diflouride (PVDF) membrane (Bio-Rad Laboratories) and blocked with heat inactivated FBS. Blots were incubated with primary antibodies or E-Ig (each at 1 μg/ml). Appropriate isotype control immunoblots (each at 1 μg/ml) were performed in parallel to evaluate nonspecific binding to protein bands. […]
In general terms: A western blot detects proteins with antibodies after separation by electrophoresis.

Data set [2] has as its system ST3GalIV, FucT-IV and FucT-VII. In words: RT-PCR of glycosyltransferases in G-CSF-treated Band 2 BM cells. In kind it is cell-based. Conditions: immature human BM cells (Band 2), 10 ng/ml G-CSF, 72 hr. An excerpt: ID NO:1) and antisense [NT] NO:2); FucT-VII, sense [NT] ID NO:3) and antisense [NT] ID NO:4); FucT-IV, sense […] NO:5) and antisense […] NO:6); GAPDH sense [NT] ID NO:8) and antisense [NT] ID NO:9).

The subject of another data set is endothelial E-selectin. In words: Parallel plate flow chamber adhesion of G-CSF-treated Band 2 cells on stimulated HUVEC. Format: cell-based, human. Conditions: 72 hr G-CSF, 1.5 dyne/cm^2, IL-1β-stimulated HUVEC. The text has this: FIGS. 12A-B illustrates G-CSF treatment enhances the capability of human BM cells to adhere to endothelial E-selectin under physiologic flow conditions. HUVEC were stimulated with IL-1β for 4-6 hrs. Subsequently, untreated or 72 hr. G-CSF-treated Band 2 cells were perfused over HUVEC at 1.5 dyne/cm^2. In certain instances, stimulated HUVEC were pretreated with a mAb to E-selectin prior to use in adhesion assays. […]
(§3) A tissue culture dish containing confluent HUVEC monolayer or CHO cells was loaded into a parallel plate flow chamber (Glycotech; Gaithersburg, Md.). […] Primary tethering^49 was determined by quantifying the number of ML or NL that attached (i.e., interacted) from the free stream directly onto HUVEC monolayer or CHO cells during the first 2 minutes of flow. Secondary attachments (i.e., flowing leukocytes interacting with an already adherent leukocyte on HUVEC monolayer or CHO cells) or leukocytes that rolled into the field of observation from the upstream region were not counted. Average rolling velocity, a quantitative measure of selectin binding strength, was computed (using Scion Image) as the displacement by the centroid of the cell divided by the time interval of observation, 5 sec.

The test system of another data set is Fuct-IX. In words: FucT-IX expression after in vitro G-CSF treatment. Format: cell-based, human. Conditions: normal progenitors and mobilized peripheral blood, 10 ng/ml G-CSF, 72 hr. An excerpt:
Lane 1 are normal cells isolated from bone marrow from healthy donor. Lane 2 are G-CSF treated normal progenitors isolated from bone marrow from healthy donor. Lane 3 are untreated cells isolated from G-CSF mobilized blood. Lane 4 are G-CSF treated cells isolated from G-CSF mobilized blood.
CD15 plays a role in innate immunity in priming dendritic cells. Moreover, FTIX fucosylates internal lactosamine units yielding the VIM-2 epitope. While, the VIM-2 is not sLex, but it consists of a terminal sialic acid with an “internal fucosylation” that can function as an E-selectin ligand

Another data set concerns L-selectin. In words: Flow cytometry of L-selectin on G-CSF-treated BM cells. Format: cell-based, human. To be noted: in vitro, 10 ng/ml G-CSF, 72 hr. The procedure:
as §1

The test system of data set [3] is E-selectin ligands on circulating leukocytes. Nature of the data set: Clinical collections of leukocytes mobilized by G-CSF administration (ML). Format: in vivo, human.
Excerpt: Materials: G-CSF mobilized peripheral blood (MPB) was obtained from pheresis products of donors for clinical HSCT at Brigham and Women's Hospital/Dana Farber Cancer Institute (Boston, Mass.). G-CSF MPB leukocytes (ML) were isolated from buffy coat of dextran sedimentated whole blood, followed by hypotonic lysis to remove contaminating red cells. Mononuclear fraction of these cells (ML-M) was isolated by Ficoll-Hypaque (1.077 g/ml; Sigma Aldrich) density gradient centrifugation. Native (unmobilized) peripheral blood was obtained from consenting healthy volunteers, and NL (buffy coat) were isolated using dextran sedimentation as for ML. Peripheral blood mononuclear cells (PBMC) were isolated by Ficoll-Hypaque density gradient centrifugation. Polymorphonuclear leukocytes (PMN) were isolated by dextran sedimentation followed by collecting the cell pellet after Ficoll-Hypaque density gradient centrifugation. Contaminated red cells were removed by hypotonic lysis.
as §3, with “sec. […]” for “sec.”
Aliquots of ˜2-5×10^5 cells were washed with PBS, 2% FBS and incubated with primary mAbs. […] Following this incubation, the cells were washed and FITC or PE fluorescence of cells was determined using a Cytomics FC 500 MPL flow cytometer (Beckman Coulter Inc., Fullerton, Calif.).

The test system of the next data set is sialidase. Nature of the data set: Sialidase expression/activity after G-CSF treatment of human myeloid cells. Format: cell-based.
Excerpt: as §2

Where [4] appears, read: multiple clinical ML collections, G-CSF administration.

As for `CC(=O)N[C@H]1[C@H]([C@H](O)[C@H](O)CO)OC(C(=O)O)=C[C@@H]1O` [DANA, 2-deoxy-2,3-dehydro-N-acetyl-neuraminic acid, reference compound], the “G-CSF-induced increase in CD15 under sialidase inhibition” value with CD15 (bone marrow cells, 10 ng/mL G-CSF for 5 days, 100 mM DANA, flow cytometry) is given as “blunts G-CSF-induced increase in CD15”. In the data set on CD15 (late mature bone marrow and leukocytes, G-CSF-treated), the “G-CSF-induced increase of CD15 under sialidase inhibition” value is “could be prevented”.

B1: G-CSF: recombinant human granulocyte colony stimulating factor (Amgen), cytokine (protein, UniProt P09919 31-207, looked up)
Granulocyte …: TPLGPASSLPQSFLLKCLEQVRKIQGDGAALQEKLVSECATYKLCHPEELVLLGHSLGIPWAPLSSCPSQALQLAGCLSQLHSGLFLYQGLLQALEGISPELGPTLDTLQLDVADFATTIWQQMEELGMAPALQPTQGAMPAFASAFQRRAGGVLVASHLQSFLEVSYRVLRHLAQP
For the molecule B1, in data set [1] (10 ng/ml G-CSF, 72 hr, 37° C., predominantly immature Band 1 and Band 2 human BM cells), the “expression of Hcell and the HECA-452-reactive ˜65 kDa glycoprotein” value was “up-regulation in expression”. Further, the “HCELL induction on lymphocytes” value in data set [1] (lymphocytes in BM or in blood) was “not induced”. In addition, in data set [1] (mature myeloid BM cells), the “inducing HCELL expression among mature myeloid BM cells” value is listed as “only a variable effect”. Moreover, in data set [2], the “expression levels of ST3GalIV, FucT-IV and FucT-VII” value is on record as “increases in expression levels”. In the data set with endothelial E-selectin, the “E-selectin binding (primary tethering, rolling velocity on stimulated HUVEC)” value is reported as “enhanced E-selectin binding”. Besides, the Fuct-IX expression entry with Fuct-IX is given as “increases Fuct-IX expression”. Besides, the “L-selectin expression on G-CSF treated cells relative to untreated cells” value in the data set with L-selectin is on record as “down-regulation of L-selectin expression”. For the same molecule, the “surface L-selectin expression on circulating leukocytes” value in data set [3] (following G-CSF administration, flow cytometry) is “marked decrease in surface L-selectin expression”. Besides, in data set [3] (setting [4]), the “E-selectin ligand activity of circulating leukocytes” value is given as “uniformly increased E-selectin ligand activity”; the “expression of the E-selectin ligands HCELL and the HECA-452-reactive ˜65 kDa glycoprotein” value is on record as “upregulated the expression”. The “expression of CD15” value with CD15 (early immature bone marrow) is listed as “did not has an effect”. Moreover, the “expression of CD15” value with CD15 (late mature bone marrow and leukocytes) is listed as “increased expression of CD15”. Besides, the expression of sialidase entry with sialidase (bone marrow and leukocytes, 10 ng/ml G-CSF, 72 hr) is on record as “increase expression of sialidase”. Moreover, the sialidase activity result with sialidase (human myeloid bone marrow cells, 10 ng/mL G-CSF, 24 hours, 4-MU-NANA substrate) was “increases sialidase activity”.
